From patent US20100150948A1, “MATERIALS AND METHODS FOR IMPROVED IMMUNOGLYCOPROTEINS” (TRUBION PHARMACEUTICALS, INC., priority 2006, published 2010)

Tested on: Ramos cells
Experiment: Ramos tumor model in nude mice
Type: in vivo
Details: 200 μg i.v. on days 0, 2, 4, 6 and 8; Ramos cells s.c.
Protocol: Nude mice are administered 5×10^6 Ramos cells subcutaneously on day 0 and injected intravenously with 200 μg control human IgG or TRU-016 test protein produced by CHO cells treated with 200 μM DMJ, 10 μM kifenunsine or 200 μM castanospermine on days 0, 2, 4, 6, and 8. Mice typically develop tumors within 6 days and die shortly thereafter. Tumors are measured three times weekly with digital calipers and LabCat software, and tumor volume is calculated as […]. Body weight is also determined once a week.
Mice are sacrificed when the tumor reaches 1500 mm^3 in size (1200 mm^3 on Fridays). Mice are also sacrificed if ulceration of a tumor occurs, the tumor inhibits the mobility of animal, or if weight loss equals or exceeds 20%.

B1: Kifu TRU-016: TRU-016 produced by CHO cells treated with 10 μM kifenunsine (antibody, chains of the INN, looked up, V domains shown)
VH: EVQLVQSGAEVKKPGESLKISCKGSGYSFTGYNMNWVRQMPGKGLEWMGNIDPYYGGTTYNRKFKGQVTISADKSISTAYLQWSSLKASDTAMYYCARSVGPFDSWGQGTLVTVSS
VL: EIVLTQSPATLSLSPGERATLSCRASENVYSYLAWYQQKPGQAPRLLIYFAKTLAEGIPARFSGSGSGTDFTLTISSLEPEDFAVYYCQHHSDNPWTFGQGTKVEIK
modifications: altered glycosylation (kifunensine-treated CHO)
notes: TRU-016 produced by CHO cells treated with 10 μM kifenunsine
  Median Survival Time: 10 days
